T1: GST fused to the APP cytosolic tail mutant FFE689-91AAA (UniProt P05067-4 649-695, FFE689-91AAA)
T1 construct: amyloid precursor protein (APP), cytosolic tail, residues 649-695; numbers count on: APP isoform 695; also called FFE689-9AAA; source: T7 express E. coli; clarified lysate loaded on glutathione-Sepharose 4B beads and washed
T1 chain (looked up): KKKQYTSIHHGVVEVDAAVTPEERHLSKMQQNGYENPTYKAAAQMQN

T2: His-tagged PTB domain of RABGAP1
T2 chain: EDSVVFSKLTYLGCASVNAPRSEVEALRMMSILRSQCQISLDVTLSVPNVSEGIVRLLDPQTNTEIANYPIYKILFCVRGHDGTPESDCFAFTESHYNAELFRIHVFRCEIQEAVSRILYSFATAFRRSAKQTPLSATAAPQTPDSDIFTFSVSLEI


How the values were obtained:
[1] = molecular target: T1, GST fused to the APP cytosolic tail …; test: pull-down; GST-APP tail WT, tail mutants or GST only on glutathione-Sepharose beads, incubated overnight at 4 °C with pre-cleared HEK293T lysate; eluted with 1.5 M NaCl; eluates immunoblotted for the hits; N = 3; settings: one partner purified
[2] = molecular target: T2, His-tagged PTB domain of RABGAP1; test: ITC; APP peptides titrated into about 100 μM His-PTB of RABGAP1 in 2.4 μl injections at 20 °C; 100 mM Tris pH 7.4, 300 mM NaCl, 1 mM TCEP; Nano ITC; three independent runs for the WT peptide; settings: both partners purified

fold change of binding against the WT tail [1] | Kd [2] | stoichiometry N [2] | Binder
~3 fold |  |  | RABGAP1 (natural protein, also called GAPCenA; TBC1D11; source: endogenous, HEK293T lysate) not shown
 | ~61 µM | 1 | MQQNGYENPTYKFFEQMQN (peptide, UniProt P05067-4 677-695, looked up, amyloid precursor protein (APP), cytosolic tail from M677 (MQQ...); numbers count on: APP isoform 695; The peptide probably runs to the C-terminus of APP695 (residue 695); also called APPwt; WT APP peptide) [WT APP tail peptide starting from the MQQ sequence at position 677]
